Experimental data published in patent US20200306373A1 (Hoffmann-La Roche, published 2020).

T1: murine ICOS (murine, UniProt Q9WVS0 21-200)
T1 construct: in the splenocyte assays the endogenous protein on murine T cells; also called mICOS
T1 sequence: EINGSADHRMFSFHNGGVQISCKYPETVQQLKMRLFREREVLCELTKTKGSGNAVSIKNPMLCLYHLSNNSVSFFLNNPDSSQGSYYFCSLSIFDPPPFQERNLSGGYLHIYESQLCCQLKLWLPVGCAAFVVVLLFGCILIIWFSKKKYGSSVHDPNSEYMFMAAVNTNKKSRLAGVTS

B1: FAP-targeted mICOSL, mIgG1 DAPG, bivalent murine ICOSL (Gly47-Lys279), monovalent FAP (28H1) c-terminal fused of the heavy chain C region (Fc fusion)
chain 1: ETEVGAMVGSNVVLSCIDPHRRHFNLSGLYVYWQIENPEVSVTYYLPYKSPGINVDSSYKNRGHLSLDSMKQGNFSLYLKNVTPQDTQEFTCRVFMNTATELVKILEEVVRLRVAANFSTPVISTSDSSNPGQERTYTCMSKNGYPEPNLYWINTTDNSLIDTALQNNTVYLNKLGLYDVISTLRLPWTSRGDVLCCVENVALHQNITSISQAESFTGNNTKNPQETHNNELKGSPGSSSSSGSADGCKPCICTVPEVSSVFIFPPKPKDVLTITLTPKVTCVVVAISKDDPEVQFSWFVDDVEVHTAQTKPREEQINSTFRSVSELPIMHQDWLNGKEFKCRVNSAAFGAPIEKTISKTKGRPKAPQVYTIPPPKKQMAKDKVSLTCMITNFFPEDITVEWQWNGQPAENYKNTQPIMKTDGSYFVYSKLNVQKSNWEAGNTFTCSVLHEGLHNHHTEKSLSHSPGGGGGSGGGGSGGGGSGGGGSEVQLLESGGGLVQPGGSLRLSCAASGFTFSSHAMSWVRQAPGKGLEWVSAIWASGEQYYADSVKGRFTISRDNSKNTLYLQMNSLRAEDTAVYYCAKGWLGNFDYWGQGTLVTVSS
chain 2: ETEVGAMVGSNVVLSCIDPHRRHFNLSGLYVYWQIENPEVSVTYYLPYKSPGINVDSSYKNRGHLSLDSMKQGNFSLYLKNVTPQDTQEFTCRVFMNTATELVKILEEVVRLRVAANFSTPVISTSDSSNPGQERTYTCMSKNGYPEPNLYWINTTDNSLIDTALQNNTVYLNKLGLYDVISTLRLPWTSRGDVLCCVENVALHQNITSISQAESFTGNNTKNPQETHNNELKGSPGSSSSSGSAGSPGSSSSSGSADGCKPCICTVPEVSSVFIFPPKPKDVLTITLTPKVTCVVVAISKDDPEVQFSWFVDDVEVHTAQTKPREEQINSTFRSVSELPIMHQDWLNGKEFKCRVNSAAFGAPIEKTISKTKGRPKAPQVYTIPPPKEQMAKDKVSLTCMITNFFPEDITVEWQWNGQPAENYDNTQPIMDTDGSYFVYSDLNVQKSNWEAGNTFTCSVLHEGLHNHHTEKSLSHSPGGGGGSGGGGSGGGGSGGGGSEIVLTQSPGTLSLSPGERATLSCRASQSVSRSYLAWYQQKPGQAPRLLIIGASTRATGIPDRFSGSGSGTDFTLTISRLEPEDFAVYYCQQGQVIPPTFGQGTKVEIK
notes: also called FAP-mICOS-L; FAP-mICOSL
B2: Fab fragment 16E09 (Fab, V domains shown)
VH: EVQLVQSGAEVKKPGESLKISCKGSGYSFTSYWIGWVRQMPGKGLEWMGIIYPGDSDTRYSPSFQGQVTISADKSISTAYLQWSSLKASDTAMYYCARSSGPYGLYLDYWGQGTLVTVSS
VL: not shown
notes: Phage-derived Fab expressed in E. coli TG1 and purified on His GraviTrap columns; also called 16E09 anti-ICOS antibody as Fab fragment; purified Fab fragment 16E09

Experiments:
murine FAP (mFAP) [1] = molecular target: T2, murine FAP (mFAP) (murine, UniProt P97321 1-761); assay: flow cytometry on 3T3-mFAP cells
T2 construct: Expressed on 3T3-mFAP / NIH/3T3-moFAP cl.34 cells; also called mouse FAP; moFAP
Procedure: (§1) The staining was fixed for 20 min at 4° C. in the dark, using 75 μl of 1% PFA in FACS buffer per well. Fluorescence was analyzed by FACS using a FACS Fortessa (Software FACS Diva). Binding curves were obtained using GraphPadPrism6 and are shown in FIGS. 6A-6C and 7A-7B, respectively.

murine FAP (mFAP) [2] = molecular target: T2, murine FAP (mFAP); assay: flow cytometry on 3T3-mFAP cells stably overexpressing murine FAP, median fluorescence intensity
Procedure: as §1

murine ICOS [3] = molecular target: T1, murine ICOS; assay: flow cytometry on CHO-K1 transfectants expressing murine ICOS
Procedure: as §1

murine ICOS [4] = molecular target: T1, murine ICOS; assay: binding to CHO K1 cells expressing murine ICOS
[5] = molecular target: T3, dimeric murine ICOS antigen Fc(kih) fusion molecule (murine, biotinylated at the C-terminal Avi tag (BirA co-expression)); assay: SPR, ProteOn XPR36, 25 C, one-shot kinetics, Fab dilution series over murine ICOS protein, 1:1 Langmuir
T3 construct: also called murine ICOS proteins; biotinylated ICOS-Fc fusion protein
Procedure: For one-shot kinetics measurements, dilution series of purified monoclonal antibody Fab fragments were injected simultaneously along separate channels 1-5. Buffer (PBST) was injected along the sixth channel to provide an “in-line” blank for referencing. Association rate constants (kₒₙ) and dissociation rate constants (koff) were calculated using a simple one-to-one Langmuir binding model in ProteOn Manager v3.1 software by simultaneously fitting the association and dissociation sensorgrams. The equilibrium dissociation constant (KD) was calculated as the ratio koff/kₒₙ (Table 18).

T2 sequence (P97321 whole entry): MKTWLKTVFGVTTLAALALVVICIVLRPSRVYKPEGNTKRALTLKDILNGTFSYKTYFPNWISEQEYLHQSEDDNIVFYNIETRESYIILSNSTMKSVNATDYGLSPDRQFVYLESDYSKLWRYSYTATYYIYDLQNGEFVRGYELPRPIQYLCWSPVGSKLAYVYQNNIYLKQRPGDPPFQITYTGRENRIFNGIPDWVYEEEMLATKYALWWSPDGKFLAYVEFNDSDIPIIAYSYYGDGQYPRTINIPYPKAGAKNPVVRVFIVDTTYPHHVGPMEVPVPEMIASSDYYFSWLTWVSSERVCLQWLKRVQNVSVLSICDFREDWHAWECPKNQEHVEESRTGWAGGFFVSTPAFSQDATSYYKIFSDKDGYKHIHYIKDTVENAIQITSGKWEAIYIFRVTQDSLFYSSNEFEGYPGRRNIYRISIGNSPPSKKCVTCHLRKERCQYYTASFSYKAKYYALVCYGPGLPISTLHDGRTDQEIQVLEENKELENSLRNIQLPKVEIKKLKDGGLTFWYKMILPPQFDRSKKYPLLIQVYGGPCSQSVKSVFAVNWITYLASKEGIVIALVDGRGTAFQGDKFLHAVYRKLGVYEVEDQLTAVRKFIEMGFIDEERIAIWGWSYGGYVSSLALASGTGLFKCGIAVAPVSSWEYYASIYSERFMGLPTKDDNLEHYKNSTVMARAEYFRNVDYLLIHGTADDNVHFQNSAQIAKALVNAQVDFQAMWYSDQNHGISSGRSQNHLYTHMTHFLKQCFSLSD

Row | Binder | EC50 (murine FAP (mFAP) [1]) | EC50 (read off the curve) (murine FAP (mFAP) [2]) | EC50 (murine ICOS [3]) | binding result (murine ICOS [4]) | Kd [5]
1 | B1 | 71.8 nM | ~30 nM | 28.1 nM |  | 
2 | B2 |  |  |  | binds | 293 nM
